The text below walks through data of article PMC2780419.

For the assay, the target named is GST-gc-p300/CH1 fusion protein (CH1 domain of grass carp p300) (grass carp (Ctenopharyngodon idella)).

As to “gcCITED3a (grass carp CITED3a), in vitro translated (natural protein)”, the gcHIF-1-mediated transactivation of HRE-luciferase activity in CHO cells, change in the presence of gcCITED3a is -40%. “gcCITED3b (grass carp CITED3b), in vitro translated (natural protein)”: the gcHIF-1-mediated transactivation of HRE-luciferase activity in CHO cells, change in the presence of gcCITED3b was -40%.
